# Measured values: the DeepSol protein solubility set
# Test: soluble on expression in E. coli; label from the status in PepcDB or PDB records
row,Sequence,soluble on expression in E. coli
1,MSLNIAVMEKGAAQPGDRLLSDVSLPALVIHNQALEHNIRWMQQFVTDSGAELAPHGKTSMVPALFRRQLDAGAWGMTLATAIQTQTAYAHGVKRVLMANQLVGAPNMAVIASLLADPMFEFHCMVDHPDNVAALGEFFAAHGLRLNVMIEYGVPGGRCGCRSEAEVLALADAVQAQPALALSGIEGYEGVIHGDQAIAGIKAFAASLVSLAVNLQDKGAFALDRPIVTASGSAWYDLIAEAFDAQAVRDRFLSVLRPGSYVVHDHGIYKDAQCCVLDRRAELSEALRPALEVWAHVQSMPEPGFAVIAMGKRDVAYDAGLPNPLLRYTPGVSSAPGDDVSACKVTAVMDQHAFMTVAADCELKVGDIISFGTSHPCLTFDKWRSGCLVDDDLRVIEPFHTCFEGHHHHHH,not soluble
2,MSLNKLAFLFPLLLAPGVAHAEPPQGVEFLHWWTSDGEQQALQTLKAQLKRHDIELLQSPVLGGGGDSAMTVLQARALAGNPPSFAQIEGPSIKAWDAIGILHNVNAVADEQRWDEVLYPLSIEINKTQNGYIALPLTLHRLNWLWVNHKLLKQLNLSAPKNWQEMFAAMELAEQNGIVPIAVGEQPWQVAQLFENLVISTGGVEFYTNAMVKLERDSIDSETLRQALTQFRRLSLLIDNQLPDSKWDTATQALADGQALFQIGGDWILGELLANQVSVPQEVGCYPTPDSDGVFLYNMDSLVFMSSKSFSSEAAQQTASALADVEFQAKFNKVKGSIPVRTDIDISDFNPCQVQSYQDFHYGVKHNLAVPSMIDSMAVNPVAQQAINSEIFRFYRNPKMEPDELIKRIIAISQSGEGHHHHHH,soluble
3,MSLNKTNYNNIISINQQREFVLFQNIQKECPLLVVFDLDDTLIHTHINTNNLCINSSDIFTIRVNEIKYYCEVRKGVVETLERLSKQFRIMIYTASKKEYADQVVSHLEKNCKLFSKILYREDCLEEEGFIYKTIHNINYNVKRIICIDDNPSAWKKLENVYVCKKYNGGIDDEMIDIEKTFIKCCILCFLFVEGHHHHHH,soluble
4,MSLNKYEPLFKSLTLPNGVEVRNRFVLAPLTHTSSNDDGTISDIELPYIEKRSKDVGIAINAASNVNDVGKAFPGQPSVAHDSDIEGLKELAQVMKKNGAKAIVQIHHGGAQALPELTPDGDVVAPSAISLKSFGQQKEHDAREMTAEEIEQTIRDFGEATRRAIEAGFDGVEIHGANHYLIHQFVSPYYNRRNDVWADNYKFPVAVIDEVVKAKKAHAYDDFIIGYRLSPEEAESPGISMEITEELIHQIANKPLDYIHVSLMDVNSVTREGKYKGENRLELIHQWINGRMPLIGIGSVFTAEDALNAVENIGVEFVALGCEILLDYDFVAKIKEGREDEIINAFDPNREDQHYLTPNLWEQFNQGFYPLPRKDKEGHHHHHH,soluble
5,MSLNLEKINELTAQDMAGVNAAILEQLNSDVQLINQLGYYIVSGGGKRIRPMIAVLAARAVGYEGNAHVTIAALIEFIHTATLLHDDVVDESDMRRGKATANAAFGNAASVLVGDFIYTRAFQMMTSLGSLKVLEVMSEAVNVIAEGEVLQLMNVNDPDITEENYMRVIYSKTARLFEAAAQCSGILAGCTPEEEKGLQDYGRYLGTAFQLIDDLLDYNADGEQLGKNVGDDLNEGKPTLPLLHAMHHGTPEQAQMIRTAIEQGNGRHLLEPVLEAMNACGSLEWTRQRAEEEADKAIAALQVLPDTPWREALIGLAHIAVQRDREGHHHHHH,soluble
6,MSLNPVDRPLLDIGLTRLEFLRISGKGLAGLTIAPALLSLLGCKQEDIDSGTVGLINTPKGVLVTQRARCTGCHRCEISCTNFNDGSVGTFFSRIKIHRNYFFGDNGVGSGGGLYGDLNYTADTCRQCKEPQCMNVCPIGAITWQQKEGCITVDHKRCIGCSACTTACPWMMATVNTESKKSSKCVLCGECANACPTGALKIIEWKDITEGHHHHHH,not soluble
7,MSLNREDRLVSAANSYLANNYECFLDDGVILTNNYSLLGTIKLGGIDFLTTSKKDLIELHASIYSVFRNFVTPEFKFYFHTVKKKIVIDETNRDYGLIFSNDFMRAYNEKQKRESFYDISFYLTIEQDLLDTLNEPVMNKKHFADNNFEEFQRIIRAKLENFKDRIELIEELLSKYHPTRLKEYTKDGIIYSKQCEFYNFLVGMNEAPFICNRKDLYLKEKMHGGVKEVYFANKHGKILNDDLSEKYFSAIEISEYAPKSQSDLFDKINALDSEFIFMHAYSPKNSQVLKDKLAFTSRRIIISGGSKEQGMTLGCLSELVGNGDITLGSYGNSLVLFADSFEKMKQSVKECVSSLNAKGFLANAATFSMENYFFAKHCSFITLPFIFDVTSNEGHHHHHH,soluble
8,MSLNRSSIAHFTASVFVLNESHDKILGIYHKIYQSWGWVGGHADGNADLLAVAVKEVQEETGLRSFKKLSEMPISIEALPVFGHHHRKYGYVSAHIHLNVTFLFEAKESDSLQKNTDETGGLAWIPLEKFSEKSSEKEMRVIYDKIITRIINKEGHHHHHH,not soluble
9,MSLNSLDTSASTINGASIIQVIFEIFEISLQRKDYTSIVQCCEFMTMLTPNYLHLVSSYLNKSDLLDKYGKTGLSNMILGSVELSTGDYTFTIQLLKLTKVFIRESLSLKNIHISKRSKIDIINKLILHAIHIFESYYNWKYNNFLQKFEIAFHLTLIFYDVLHDVFTINPHQKDQLIISSSANKLLQLFLTPMDSIDLAPNTLTNILISPLNTTTKILGDKILGNLYSKVMNNSFKLCTLLISIRGSNRDLKPSNLEKLLFINSSKLVDVYTLPSYVHFKVQIIELLSYLVEAPWNDDYPFLLSFLGEAKSMAFLKEVLSDLSSPVQDWNLLRSLYIFFTTLLESKQDGLSILFLTGQFASNKKINDESSIDKKSSILTVLQKNSLLLDSTPEEVSCKLLETITYVLNTWTNSKIFIKDPKFVNSLLAKLKDSKKLFQKKENLTRDETVSLIKKYKLISRIVEIFALCIYNSTDSNSEILNFLNQEDLFELVHHFFQIDGFNKTFHDELNLKFKEKWPSLELQSFQKIPLSRINENENFGYDIPLLDIVLKADRSWNEPSKSQTNFKEEITDASLNLQYVNYEISTAKAWGALITTFVKRSTVPLNDGFVDLVEHFLKLNIDFGSDKQMFTQIYLERIELSFYILYSFKLSGKLLKEEKIIELMNKIFTIFKSGEIDFIKNIGKSLKNNFYRPLLRSVLVLLELVSSGDRFIELISDQLLEFFELVFSKGVYLILSEILCQINKCSTRGLSTDHTTQIVNLEDNTQDLLLLLSLFKKITNLNPSKNFNVILASSLNEVGTLKVILNLYSSAHLIRINDEPILGQITLTFISELCSIEPIAAKLINSGLYSVLLESPLSVAIQQGDIKPEFSPRLHNIWSNGLLSIVLLLLSQFGIKVLPETCLFVSYFGKQIKSTIYNWGDNKLAVSSSLIKETNQLVLLQKMLNLLNYQELFIQPKNSDDQQEAVELVIGEGHHHHHH,not soluble
10,MSLNSLPKNIAIYTRVSTEKQDSNNSKANQLESIKQYINNQGWSDVPYEIYSDTQSASITSNSLNMYNDSDTMNPSIFLRDGLRRLIYDANYKKFDKLIVYSHDRLSRDIYEGLLIKHTLKKLNIDILYSKAGEQINSENQSINNFFENMLSNIAALESSIIGGRVLIGNRHNILNNIWAGGPAPYGYKLIALPSNRKKSKLSIYAPEARVVKKIFELYTTGYTPKDIVQFIKSEYSYNKDRLWTINSIKSILNNPVYTGTMVWNKKGGKRNPRKHPIDEYVYSKFDENIRIIDEKLWKKSLNIRKLQDENPKFLSEGHHHHHH,soluble
11,MSLNTRQLLSVGIDIGTTTTQVIFSRLELVNRAAVSQVPRYEFIKREISWQSPVFFTPVDKQGGLKEAELKTLILEQYHAAGIEPESVDSGAIIITGESAKTRNARPAVMALSQSLGDFVVASAGPHLESVIAGHGAGAQTLSEQRLCRVLNIDIGGGTANYALFDAGKISGTACLNVGGRLLETDSHGRVVYAHKPGQMIVDECFGAGTDARSLTGAQLVQVTRRMAELIVEVIDGTLSPLAQALMQTGLLPAGVTPEIITLSGGVGECYRHQPADPFCFADIGPLLATALHDHPRLREMNVQFPAQTVRATVIGAGAHTLSLSGSTIWLEGVQLPLRNLPVAIPIDETDLVGAWQQALIQLDLDPKTDAYVLALPASLPVRYAAVLTVINALVDFVARFPNPHPLLVVAGQDFGKALGMLLRPQLQQLPLAVIDEVIVRAGDYIDIGTPLFGGSVVPVTVKSLAFPSEGHHHHHH,soluble
12,MSLNVDLHCHSTASDGALSPSVLVARAHEHGVQALALTDHDTLEGLPEARQACVDLGMRWVSGVELSCTWGGATIHVLGYDFPLDAPPLLAAIQALHHGRWLRAEEIDRRLAAKGMPGTLEGARAVQHELGDSGNAPARPHFAEYLVRAGHVKDRGEAFRKWLGAGKLGDVKQHWPTLDETVATLRQSNAWVSLAHPMHYDLTRSKRRRLIADYIQAGGQALEVVNGMMPAEQVGTMSILAREFGLLASAGSDFHGPGTWGEIGAYRPLPEDLPPLWRRFSHEEGHHHHHH,soluble
13,MSLNVNFFVTCIGDALKSRMARDSVLLLEKLGCRVNFPEKQGCCGQPAINSGYIKEAIPGMKNLIAALEDNDDPIISPAGSCTYAVKSYPTYLADEPEWASRAEKVAARMQDLTSFIVNTLGVVDVGASLQGRAVYHPSCSLARKLGVKDEPLTLLKNVRGLELLTFAEQDTCCGFGGTFSVKMAEISGEMVKEKVAHLMEVRPEYLIGADVSCLLNISGRLQREGQKVKVMHIAEVLMSREGHHHHHH,not soluble
14,MSLNYEGRVLVVDDVNDIRMLVGHMVQNSGLKVEYGRNGLEALDKVTDAINDGDPYDLVLIDIHMPVMNGSEAIKQIRSSGIHFPVVAMTAATMKGVRDQLISQGFTNVLEKPINHDALLKVLDAHLTAVSEPIQVETTDAHDNDASQQDESSERQHFLLVEDDVDAADITALLLESLGIDVHVAHSGQECMDVFNQRNDWSKVLMDLNLPDASGLNLAKEIHKTSPQLELVLLSGEEPDAQSMADADITKFILKPINKKVLSDLVEEGHHHHHH,soluble
15,MSLNYLMKEKYIGLHKFELDTPCLVIDYEKLKHNLEIMQQHGFTWGIGIRPHCKTHKCTQIARLQLEYGAIGISAAKLSEAAALVSKRITNVLITSLIVSEAKYSRLFNCLKSAPDLMLVVDDKDNIRMLNKLGKSLNQPVHVLLDIDSGIGRTGINPEAALEYGHFINGMNWLKLKGIQCYAGHLQHIQNYEERKAFSLQVMEMASRIVKSFRDANLPCEILTGTGTGTFDIDVEASEVTEIQPGSYAVMDVEYGSIGSKNNPSSFQLFKNSMTLLTSVISSNRREHATVDAGTKSIYVDPHHKPHIISHPGLVYDWGGFGDEHGKVFSCEGGSHFLQNGDVLEIIVPHCDPTINLYDKFYITENNVVVDIWDIDMRGKSEGHHHHHH,soluble
16,MSLNYTTQMDAAKKGIITKEMQVVSEKEGINIETLMNLMAEGKIVIPANKNHKSISAEGVGQGLRTKINVNLGISKDCANIELELEKVKKAIDMNAESIMDLSNYGKTYDFRKRLVEVSTAMIGTVPMYDVVGFYDKELKDITVDEFFEVVEKHAKDGVDFVTIHAGLNRETIETFRRNKRLTNIVSRGGSLLFAWMELNNRENPFYEYFDRLLDICEKYDLTLSLGDACRPGSIADATDAVQIKELITLGELTKRAWERNVQVIIEGPGHMAMNEIEANVLLEKKLCHGAPFYVLGPIVTDIAPGYDHITSAIGGAMAASYGADFLCYVTPAEHLRLPNLEDVREGIVATKIAAHAADIAKGISGARDIDNKMSDARKRLDWDEMFSLAIDSEKAIRYRKESTPEHKDSCTMCGKMCSIRNMNKILEGKDINLLREGHHHHHH,soluble
17,MSLPIDEHVNAVKTVVVPAAGLGTRFLPATKTVPKELLPVVDTPGIELIAAEAAELGATRLAIITAPNKAGVLAHFERSSELEETLMERGKTDQVEIIRRAADLIKAVPVTQDKPLGLGHAVGLAESVLDDDEDVVAVMLPDDLVLPTGVMERMAQVRAEFGGSVLCAVEVSEADVSKYGIFEIEADTKDSDVKKVKGMVEKPAIEDAPSRLAATGRYLLDRKIFDALRRITPGAGGELQLTDAIDLLIDEGHPVHIVIHQGKRHDLGNPGGYIPACVDFGLSHPVYGAQLKDAIKQILAEHEAAERIADDSQVKLEHHHHHH,soluble
